Experimental data taken from patent US20220119522A1 (DENALI THERAPEUTICS, published 2022).
Substitutions are numbered along the chain they refer to. No end group written: not given here.

B1: CL0020113 (antibody, V domains shown)
VH: QIQLVQSGPELKKPGESLKISCKASGYTFTDYAMQWVKQAPGKGLQYMGWINTQTGKPTYADDFKERFVFSLETSASTAYLKINNLKNDDMATYLCARSYGGEYNWIAYWGQGTLVTVSS
VL: DIVMTQTPSSQAVSAGEKVTMNCKSSQSLLYNENKKNYLAWYQQKPGQSPKLLIYWASTRESGVPDRFIGSGSGTDFTLTISSVQAEDLAVYYCQQSYNFPPTFGGGTKLELK
notes: also called Clone CL0020113
B2: CL0020205 (antibody, V domains shown)
VH: EVQLQQSGPVLVKPGASVKMSCKASGYTFTDYYVHWVKQSHGKSLEWIGLINPYTGTTSYNQRFRVKATLTVDKSSSTAYMEVNSLTSEDSAVYYCARSRVYYGSSLFAFWGQGTLVTVSA
VL: DIVMTQSPSSLSVSAGEKVTMSCKSSQSLLNSGNQKNYLAWYQQKPGQPPKLLIYGASTRESGVPDRFTGSGSGTDFTLTISSVQAEDLAVYYCQNDHSYPYTFGGGTKLEIK
notes: also called Clone CL0020205
B3: CL0020195 (antibody, V domains shown)
VH: EVQLVESGGGLVQPGRSMMLSCSASGFTFSNYHMAWVRQAPTTGLEWVASITTGSGNTYYRHSVKGRFTISRDNAKSTLYLQMDSLRSEDTASYYCARRWYGGYEGYYFDYWGQGVMVTVSS
VL: DIQMTQSPSLLSASVGDRVTLSCKAGQNVNNYLAWYQQKLGEAPKLLIYNANILQTGFPSRFSGTGSGTDFTLTISSLQPEDVATYFCQQYNSWTTFGGGTKLELK
notes: also called Clone CL0020195
B4: CL0020120 (antibody, V domains shown)
VH: EVQLQQSGPELVRTGASVKISCRASSYSFTDNYIHWVKQTHGRSLEWIGYISGYTGATSYNQKFKGKATFTVDTSSSTAYMQFNSLTSEDSAVYYCARSTMIAPYGMDYWGQGTSVTVSS
VL: DIVMTQSHKFMSTSVGDRVNITCKASQDVVTAVAWYQQKPGQSPKLLIYWASTRHTGVPDRFTGSGSGTDFTLTISNVQSEDLADYFCQQYSRYPLTFGAGTKLELK
notes: also called Clone CL0020120
B5: CL0020127 (antibody, V domains shown)
VH: EVQLQQSGPVLVKPGASVKMSCKASGYKFTDYYMNWVKQSHGKSLEWIGTINPYSGGISYNQKFKGKATLTVDKSSSTAYMELNSLTSEASAVYYCTRRNWDGRYAMDYWGQGTSVTVSS
VL: B4 VL with N20S, V30S, D85E, R93S, L96F, A100G, L106I
notes: also called Clone CL0020127
B6: CL0020206 (antibody, V domains shown)
VH: B5 VH with K28T, T50I, T69I
VL: B4 VL with N20S, C23Y, V30G, T31S, A51T, R93S, L96F, A100G, L106I
notes: also called Clone CL0020206
B7: CL0020210 (antibody, V domains shown)
VH: QIQLVQSGPELRKPGETVKISCKASGYTFTTYGMSWVKQAPGKGLKWMGWINTYSGLPRHSDDFKGRFAFSLETSASTAYLQINNLKNEDTATYFCAREVYYGSRKTAWFAYWGQGTLVTVSA
VL: DLVMSQSPSSLAVSVGERITMTCKSSQSLLYSNDQKNYLAWYQQIPGQSPKLLLYWASTRESGVPDRFTGSGSGTDFTLTISSVKAEDLAVYFCQQYYNYPPTFGAGTKLELK
notes: also called Clone CL0020210; CL020210
B8: CL0020188-1 (antibody, V domains shown)
VH: EVQLVESGGGLVQPGGSLRLSCAASGFTFTDFYMSWVRQAPGKGLEWVSVIRNKANGYTAGYNPSVKGRFTISRDNSKNTLYLQMNSLRAEDTAVYYCARLTYGFDYWGQGTLVTVSS
VL: DIVMTQTPLSLPVTPGEPASISCQSSKSLLHSNGKTYLNWYLQKPGQSPQLLIYWMSTRASGVPDRFSGSGSGTDFTLKISRVEAEDVGVYYCQQFLEYPFTFGQGTKVEIK
notes: also called Clone CL0020188-1
B9: CL0020188-6 (antibody, V domains shown)
VH: B8 VH with A24G, L45P, V48L, G57A
VL: B8 VL
notes: Humanized variant of CL0020188 (hVH NA/3 m, hVL NG/graft); also called Clone CL0020188-6
B10: CL0020188-2 (antibody, V domains shown)
VH: B8 VH with A24G, L45P, V48L
VL: B8 VL
notes: Humanized variant of CL0020188 (hVH NG/3 m, hVL NG/graft); also called Clone CL0020188-2
B11: CL0020188-8 (antibody, V domains shown)
VH: B8 VH with A24G, L45P, V48L, G57A
VL: B8 VL with N33T
notes: Humanized variant of CL0020188 (hVH NA/3 m, hVL TG/graft); also called Clone CL0020188-8
B12: CL0020188-5 (antibody, V domains shown)
VH: B8 VH with G57A
VL: B8 VL
notes: Humanized variant of CL0020188 (hVH NA/graft, hVL NG/graft); also called Clone CL0020188-5
B13: CL0020188-3 (antibody, V domains shown)
VH: B8 VH
VL: B8 VL with N33T
notes: Humanized variant of CL0020188 (hVH NG/graft, hVL TG/graft); also called Clone CL0020188-3

Target: T1, human TREM2 on the cell surface (human, UniProt Q9NZC2 19-230)
T1 construct: also called surface TREM2; TREM2 expressed in HEK293-H6 cells
T1 sequence: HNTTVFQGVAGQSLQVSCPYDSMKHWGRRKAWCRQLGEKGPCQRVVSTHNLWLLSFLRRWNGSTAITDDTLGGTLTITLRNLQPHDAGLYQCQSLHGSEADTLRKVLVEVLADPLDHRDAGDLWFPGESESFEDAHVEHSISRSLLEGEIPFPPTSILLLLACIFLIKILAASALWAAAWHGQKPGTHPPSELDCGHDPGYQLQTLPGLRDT
Test: cell binding, human macrophages, dose titration

EC50 [nM]	Binder
2.1	B1
2.1	B2
1.3	B3
1.6	B4
11	B5
4.8	B6
0.9	B7

Target: T2, His-tagged human TREM2 ECD (human, UniProt Q9NZC2 19-172)
T2 construct: Biacore and HDX say only recombinant human TREM2 (ECD); also called recombinant human TREM2; hTREM2
T2 sequence: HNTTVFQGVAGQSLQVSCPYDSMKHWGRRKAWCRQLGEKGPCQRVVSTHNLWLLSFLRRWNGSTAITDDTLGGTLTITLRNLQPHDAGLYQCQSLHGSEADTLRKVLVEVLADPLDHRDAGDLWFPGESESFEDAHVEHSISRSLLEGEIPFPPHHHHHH
Test: SPR (Biacore)
Protocol: (§1) Surface plasmon resonance (Biacore™ 8K instrument) was used to measure anti-TREM2 antibody affinities for human and cynomolgus TREM2 ECD. Anti-TREM2 antibodies were captured using Human Fab Capture Kit (GE Healthcare Life Sciences, Catalog No. 28958325) on a Biacore Series S CM5 sensor chip (GE Healthcare Life Sciences, Catalog No. 29149604). Serial 3-fold dilutions of recombinant human or cynomolgus TREM2 were injected at a flow rate of 30 μL/min. Antibody binding was monitored for 300 seconds, followed by monitoring of antibody dissociation for 600+seconds in HBS-EP+ running buffer (GE Healthcare Life Sciences, Catalog No. BR100669). The binding response was corrected by subtracting the RU value from a blank flow cell. A 1:1 Languir model of simultaneous fitting of kₒₙ and koff was used for kinetics analysis.
(§2) Sequence optimization was conducted by searching within CDR sequences for residues that are susceptible to chemical modification (e.g., asparagine deamidation motifs (NG), aspartic acid isomerization motifs (DS), and potential oxidation residues (tryptophan (W) and methionine (M)) and making amino acid substitutions with conservative and germline residues to remove such sequence liabilities. Humanized and sequence-optimized variants of anti-TREM2 antibodies were then analyzed for binding kinetics using Biacore and dose-titrated cell binding to HEK293-H6 cells (see, Example 1 for representative protocols).

Kd [nM]	Binder
2.3	B8
4	B9
3.4	B10
7.3	B11
5.1	B12
6.8	B13

Target: T2, His-tagged human TREM2 ECD
Test: SPR (Biacore), antibody captured via anti-human Fab, recombinant TREM2 ECD injected, 1:1 fit
Protocol: as §1

Kd [nM]	Binder
7.81	B1
1.52	B2
25.7	B3
4.04	B4
3.37	B5
1.82	B6
6.27	B7

Target: T1, human TREM2 on the cell surface
Test: cell-based or functional assay

NFAT EC50 (nM), plate coated mAb [nM]	pSyk activation (human macrophages) EC50 (nM)	Binder	Survival EC50 (nM), plate coated mAb, human macrophages [nM]
185	24.8	B1	24.8
67.7	14.3	B2	5.7
98.3	12	B3	
195	24.2	B4	17.8
20.5	11.9	B5	
69.9	20.7	B6	
11.7	37.4	B7	

Target: T1, human TREM2 on the cell surface
Test: flow cytometry, dose-titrated binding to HEK293-H6 cells
Protocol: After incubation, the cells were centrifuged and washed in FACS buffer (PBS+0.5% BSA) twice. Mixed cells were resuspended in FACS buffer with human Trustain FcX solution (Biolegend, Catalog No. 422302) at a density of 10⁶/mL per cell line. The mixed cell lines were seeded at 200,000 cells per well in a 96-well round-bottom plate and incubated for 20 minutes at room temperature. After incubation, the cells were centrifuged and incubated with anti-TREM2 antibodies of about 0-200 nM dose titration for 45 minutes on ice. After incubation, the cells were centrifuged and washed with FACS buffer three times. […] After incubation, the cells were washed with FACS buffer three times, resuspended in 100 μL of FACS buffer, and analyzed by flow cytometry (BD FACSCanto II, San Jose, Calif.), for which 30,000 events were obtained for each sample. Mean fluorescence intensity per cells were calculated by FlowJo software and used for generating dose response binding curve.
as §2

EC50 [nM]	Binder
0.42	B8
0.31	B9
0.26	B10
0.51	B11
0.45	B12
0.64	B13

Target: T3, mouse TREM2 full length stalk region peptide (aa 131-169) (mouse, UniProt Q99NH8 131-169, biotinylated (site not stated))
T3 peptide (looked up): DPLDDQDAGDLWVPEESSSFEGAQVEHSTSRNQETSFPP
Test: ELISA on biotinylated peptide captured by streptavidin; A450 normalised to isotype control
Protocol: (§3) TREM2 antibodies were evaluated for binding to human and mouse TREM2 stalk region peptides. […] Antibody binding to TREM2 stalk peptides was detected using standard sandwich ELISA. Briefly, a 96-well half-area ELISA plate was coated with streptavidin overnight at 4° C. The following day, biotinylated TREM2 stalk peptides diluted in 1% BSA/PBS were added to the plate and incubated for 1 hour. Antibodies diluted in 1% BSA/PBS were then added and incubated for 1 hour. Antibodies bound to peptide were detected with anti-human kappa-HRP secondary antibody (Bethyl Laboratories, Inc.) diluted in 1% BSA/PBS. Plates were assayed by reaction with a detection reagent (One-step TMB Ultra, Thermo) and measurement of absorbance at 450 nm (A450) by standard spectrophotometry instrumentation (BioTek®). Data are shown as normalized values (fold over background where background=isotype control).

fold over background (A450) [fold]	Binder
1.1	B2
1.1	B3
1.2	B4
1.3	B5
1.6	B6
25	B7

Target: T4, human TREM2 full length stalk region peptide (aa 129-172) (human, biotinylated (site not stated))
T4 construct: also called Human TREM2 peptide (aa 129-172); full-length TREM2 stalk peptide
T4 peptide: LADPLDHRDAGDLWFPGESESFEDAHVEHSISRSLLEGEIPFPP
Test: as above
Protocol: as §3

fold over background (A450) [fold]	Binder
47	B1
1.3	B2
1.3	B3
1.2	B4
1.4	B5
1.8	B6
50	B7

Target: T5, human TREM2 truncated stalk peptide (aa 149-163) (human, also: biotinylated (site not given here))
T5 construct: also called Human TREM2 peptide (aa 149-163); truncated stalk peptide containing the ADAM10/17 cleavage site
T5 peptide: SFEDAHVEHSISRSL
Test: as above
Protocol: as §3

fold over background (A450) [fold]	Binder
1.4	B1
1.2	B2
1.1	B3
1.2	B4
1.2	B5
1.6	B6
1.5	B7
